The numbers were not newly measured in paper PMC6832444, which cites them from elsewhere.

This data set concerns the target PD-L2 (Homo sapiens) (UniProt Q9BQ51).
Sequence of UniProt Q9BQ51 (Q9BQ51 20-220): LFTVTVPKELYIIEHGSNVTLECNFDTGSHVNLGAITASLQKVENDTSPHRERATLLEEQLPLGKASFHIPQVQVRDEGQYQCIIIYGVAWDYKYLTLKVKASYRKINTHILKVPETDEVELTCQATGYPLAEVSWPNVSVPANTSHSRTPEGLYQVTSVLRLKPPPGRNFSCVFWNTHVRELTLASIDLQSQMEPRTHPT

The Kd is the equilibrium constant for the complex coming apart. For PD-1 (from UniProt Q15116), the Kd is 140 nM.
